Source: article PMC10216714, “NMR and Patch-Clamp Characterization of Yeast Mitochondrial Pyruvate Carrier Complexes” (Biomolecules, 2023)
Blank lines part the entries; values can stand above or below the binder they belong to.

What was measured:
[1] = biological target: T1, Saccharomyces cerevisiae mitochondrial pyruvate carrier 1 (Mpc1) with C-terminal 8×His-tag (Saccharomyces cerevisiae), P53157; test: SEC-MALS; Superdex 75 with Dawn HELEOS II, three-detector method (MALS/UV/RI), 0.3 mL/min; 100 mM Tris/HCl pH 7.5, 150 mM NaCl, 1 mM EDTA, 10 mM β-ME, 1 mM DPC, 2 mM LDAO; second elution peak of each complex; conditions: remark: other sources report otherwise
T1 chain: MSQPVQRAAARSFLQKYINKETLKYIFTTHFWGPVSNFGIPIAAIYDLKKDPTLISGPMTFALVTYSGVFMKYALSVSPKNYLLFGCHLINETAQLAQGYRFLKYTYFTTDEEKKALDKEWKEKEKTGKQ

[2] = biological target: the molecule itself; test: as above
[3] = biological target: T2, Mpc1^linker: Mpc1 with C-terminal ENLYFQG (TEV site), flexible linker (GGGGS)4, WSHPQFEK and 8×His-tag (Saccharomyces cerevisiae, UniProt P53157 1-130); test: SEC; monomers refolded alone or pre-mixed 1:1 in LDAO/DPC (2:1), then Superdex 75 10/300 GL in 100 mM Tris/HCl pH 7.5, 150 mM NaCl, 1 mM EDTA, 10 mM β-ME, 1 mM DPC, 2 mM LDAO; peaks analysed by SDS-PAGE with Coomassie staining; conditions: both partners purified
T2 construct: Mpc1, Saccharomyces cerevisiae, NCBI NM_001180945; The extension was added so that Mpc1 and Mpc2 can be told apart by size on SDS-PAGE; no TEV cleavage is described; not shown: 8×His, C-terminal, kept
T2 sequence (looked up): T1 chain

[4] = biological target: T3, Saccharomyces cerevisiae mitochondrial pyruvate carrier 1 (Mpc1) with C-terminal 8×His-tag (Saccharomyces cerevisiae, UniProt P53157 1-130); test: paramagnetic relaxation enhancement (PRE) NMR; MTSL-labelled monomer co-refolded with 15N-labelled monomer; 1H-15N BEST-TROSY with and without vitamin C; 25 mM NaAc pH 6.0, 50 mM glutamic acid, 50 mM arginine, 10 mM β-ME, 1 mM EDTA, 1 mM DPC, 2 mM LDAO; 308 K, 850 MHz; conditions: both partners purified
T3 construct: Mpc1, Saccharomyces cerevisiae, NCBI NM_001180945; amplified from a cDNA library with printed primers that run from the ATG to the last codon before the stop; 15N-labelled where it was the observed partner in NMR; The reverse primer carries a BamHI site, so a few vector-coded residues may lie between Mpc1 and the His-tag (surmised); also called 15N-Mpc1; yeast Mpc1
T3 sequence (looked up): T1 chain

stoichiometry N [1]: 2
B1: Saccharomyces cerevisiae mitochondrial pyruvate carrier 1 (Mpc1) with C-terminal 8×His-tag, P53157 1-130 (natural protein)
chain: T1 chain

stoichiometry N [3]: ~1
B2: Saccharomyces cerevisiae mitochondrial pyruvate carrier 2 (Mpc2) with C-terminal 8×His-tag (natural protein, UniProt P38857 1-129, looked up)
chain: MSTSSVRFAFRRFWQSETGPKTVHFWAPTLKWGLVFAGFSDMKRPVEKISGAQNLSLLSTALIWTRWSFVIKPRNILLASVNSFLCLTAGYQLGRIANYRIRNGDSISQLCSYILSGADESKKEITTGR
notes: Mpc2, Saccharomyces cerevisiae, NCBI NM_001179293; amplified from a cDNA library with printed primers that run from the ATG to the last codon before the stop; 15N-labelled where it was the observed partner in NMR; The reverse primer carries a BamHI site, so a few vector-coded residues may lie between Mpc2 and the His-tag (surmised); also called 15N-Mpc2; yeast Mpc2
stoichiometry N [2]: 2

binding result [4]: binds
B3: MTSL-labelled Mpc2 monomer (MTSL on C86 and C111) (natural protein, Saccharomyces cerevisiae, UniProt P38857 1-129, looked up)
chain: B2 chain
modifications: MTSL spin label on C86 and C111
notes: Mpc2, Saccharomyces cerevisiae, NCBI NM_001179293; same construct as m2, not isotope-labelled; Same chain as m2 with the paramagnetic probe on its cysteines; also called MTSL–Mpc2; source: E. coli Rosetta 2 (DE3), inclusion bodies, purified
